Assay results taken from patent US20140175018A1.
Like-named read-outs stand apart in the source and are kept apart here.

Legend:
[1] = biological target: T1, chemokine (C-X-C motif) receptor 1 (CXCR1) (human) (UniProt P25024); test: cell-based or functional assay
T1 sequence (looked up): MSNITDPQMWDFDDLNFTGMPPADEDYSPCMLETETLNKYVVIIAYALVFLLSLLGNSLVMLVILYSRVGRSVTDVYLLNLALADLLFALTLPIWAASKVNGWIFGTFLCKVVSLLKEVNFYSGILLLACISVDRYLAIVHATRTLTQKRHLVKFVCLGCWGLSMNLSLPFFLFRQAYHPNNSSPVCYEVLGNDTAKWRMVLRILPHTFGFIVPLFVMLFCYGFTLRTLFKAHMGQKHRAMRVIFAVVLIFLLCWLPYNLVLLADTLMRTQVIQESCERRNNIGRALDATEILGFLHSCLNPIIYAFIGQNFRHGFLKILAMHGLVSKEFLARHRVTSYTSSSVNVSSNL

[2] = biological target: chemokine (C-X-C motif) receptor 3 (CXCR3) (human) (UniProt P49682); test: cell-based or functional assay
chemokine (C-X-C motif) receptor 3 (CXCR3) (human), sequence (P49682 whole entry): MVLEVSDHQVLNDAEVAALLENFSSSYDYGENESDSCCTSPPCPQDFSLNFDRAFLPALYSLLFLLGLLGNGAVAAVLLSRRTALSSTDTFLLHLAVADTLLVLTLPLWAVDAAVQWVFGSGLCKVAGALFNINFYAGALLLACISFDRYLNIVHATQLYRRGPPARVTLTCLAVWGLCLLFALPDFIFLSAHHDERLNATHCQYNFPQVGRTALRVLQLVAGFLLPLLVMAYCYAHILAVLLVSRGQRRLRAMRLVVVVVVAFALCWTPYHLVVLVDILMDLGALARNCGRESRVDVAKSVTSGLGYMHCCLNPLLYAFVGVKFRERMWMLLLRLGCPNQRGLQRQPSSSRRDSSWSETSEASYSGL

[3] = biological target: chemokine (C-C motif) receptor 3 (CCR3) (human) (UniProt P51677); test: blood passed through chemokine-coupled column; flow cytometry before and after
chemokine (C-C motif) receptor 3 (CCR3) (human), sequence (P51677 whole entry): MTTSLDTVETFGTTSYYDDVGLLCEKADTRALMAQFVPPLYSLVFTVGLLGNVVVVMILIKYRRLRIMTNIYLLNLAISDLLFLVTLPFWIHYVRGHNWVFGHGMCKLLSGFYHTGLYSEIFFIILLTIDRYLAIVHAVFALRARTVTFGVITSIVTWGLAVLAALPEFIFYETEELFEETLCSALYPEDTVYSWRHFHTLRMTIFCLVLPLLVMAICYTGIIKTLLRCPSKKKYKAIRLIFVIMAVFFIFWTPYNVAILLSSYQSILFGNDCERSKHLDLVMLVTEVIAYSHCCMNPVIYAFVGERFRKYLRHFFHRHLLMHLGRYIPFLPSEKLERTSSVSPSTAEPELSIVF

[4] = biological target: chemokine (C-C motif) receptor 3 (CCR3) (human) (UniProt P51677); test: blood passed through magnetic column with RANTES-coupled MACS beads; flow cytometry before and after
[5] = biological target: chemokine (C-X-C motif) receptor 4 (CXCR4) (human) (UniProt P61073); test: cell-based or functional assay
chemokine (C-X-C motif) receptor 4 (CXCR4) (human), sequence (P61073 whole entry): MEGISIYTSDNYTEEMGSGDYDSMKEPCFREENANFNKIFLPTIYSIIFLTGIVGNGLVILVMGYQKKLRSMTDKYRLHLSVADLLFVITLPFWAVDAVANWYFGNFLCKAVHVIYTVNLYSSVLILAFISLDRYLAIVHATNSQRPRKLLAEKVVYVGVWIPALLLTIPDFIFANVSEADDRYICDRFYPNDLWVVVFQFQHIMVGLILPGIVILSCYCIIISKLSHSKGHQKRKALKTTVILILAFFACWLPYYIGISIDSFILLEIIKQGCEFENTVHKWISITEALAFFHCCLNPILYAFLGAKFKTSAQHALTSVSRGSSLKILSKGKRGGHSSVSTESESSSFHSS

[6] = biological target: T2, chemokine (C-C motif) receptor 4 (CCR4) (human) (UniProt P51679); test: cell-based or functional assay
T2 sequence (looked up): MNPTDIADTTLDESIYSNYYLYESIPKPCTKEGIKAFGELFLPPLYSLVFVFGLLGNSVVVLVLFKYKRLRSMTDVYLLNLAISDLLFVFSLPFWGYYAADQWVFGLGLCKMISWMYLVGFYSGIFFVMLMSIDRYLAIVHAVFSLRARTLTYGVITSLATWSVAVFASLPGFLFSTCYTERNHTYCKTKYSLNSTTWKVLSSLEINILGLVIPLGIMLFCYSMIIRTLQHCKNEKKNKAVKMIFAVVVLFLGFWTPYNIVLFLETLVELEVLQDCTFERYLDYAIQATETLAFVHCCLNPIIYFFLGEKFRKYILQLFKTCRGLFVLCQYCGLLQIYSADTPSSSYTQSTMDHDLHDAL

[7] = biological target: T1, chemokine (C-X-C motif) receptor 1 (CXCR1) (human); test: cell-based or functional assay; remark: listed apart in the source
[8] = biological target: T3, chemokine (C-C motif) receptor 6 (CCR6) (human) (UniProt P51684); test: cell-based or functional assay
T3 sequence (looked up): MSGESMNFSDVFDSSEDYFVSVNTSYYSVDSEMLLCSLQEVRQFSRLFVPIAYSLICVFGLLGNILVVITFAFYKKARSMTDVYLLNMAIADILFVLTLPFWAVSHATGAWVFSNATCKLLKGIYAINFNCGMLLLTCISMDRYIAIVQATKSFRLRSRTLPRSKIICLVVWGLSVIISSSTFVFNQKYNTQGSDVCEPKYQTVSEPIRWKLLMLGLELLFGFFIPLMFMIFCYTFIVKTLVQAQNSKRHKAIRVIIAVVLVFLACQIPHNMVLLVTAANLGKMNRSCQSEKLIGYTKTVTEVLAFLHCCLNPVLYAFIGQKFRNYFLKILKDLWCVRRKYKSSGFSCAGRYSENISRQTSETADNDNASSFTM

[9] = biological target: chemokine (C-C motif) receptor 7 (CCR7) (human) (UniProt P32248); test: cell-based or functional assay
chemokine (C-C motif) receptor 7 (CCR7) (human), sequence (P32248 25-378): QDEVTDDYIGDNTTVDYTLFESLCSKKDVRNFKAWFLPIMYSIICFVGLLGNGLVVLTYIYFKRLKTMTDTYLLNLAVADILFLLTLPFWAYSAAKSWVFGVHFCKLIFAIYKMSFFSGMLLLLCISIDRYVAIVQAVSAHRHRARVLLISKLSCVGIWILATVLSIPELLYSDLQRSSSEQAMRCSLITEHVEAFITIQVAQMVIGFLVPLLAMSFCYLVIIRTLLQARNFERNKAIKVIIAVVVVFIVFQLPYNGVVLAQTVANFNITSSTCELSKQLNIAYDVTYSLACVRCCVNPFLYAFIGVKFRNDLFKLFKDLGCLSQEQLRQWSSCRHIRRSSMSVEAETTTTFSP

[10] = biological target: chemokine (C-C motif) receptor 9 (CCR9) (human) (UniProt P51686); test: cell-based or functional assay
chemokine (C-C motif) receptor 9 (CCR9) (human), sequence (P51686 whole entry): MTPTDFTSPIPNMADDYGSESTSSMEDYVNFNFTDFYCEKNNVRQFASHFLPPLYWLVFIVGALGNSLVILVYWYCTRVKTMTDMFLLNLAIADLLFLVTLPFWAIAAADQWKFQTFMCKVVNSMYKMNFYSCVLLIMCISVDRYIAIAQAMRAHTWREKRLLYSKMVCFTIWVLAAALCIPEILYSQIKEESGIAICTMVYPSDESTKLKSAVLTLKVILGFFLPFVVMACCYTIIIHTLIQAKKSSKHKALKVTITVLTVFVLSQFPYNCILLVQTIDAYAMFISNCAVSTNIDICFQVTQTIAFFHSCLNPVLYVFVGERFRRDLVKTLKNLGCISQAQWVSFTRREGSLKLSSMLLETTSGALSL

[11] = biological target: chemokine (C-C motif) receptor 9 (CCR9) (human) (UniProt P51686); test: cell-based or functional assay; remark: listed apart in the source
[12] = biological target: chemokine (C-C motif) receptor 3 (CCR3) (human) (UniProt P51677); test: cell-based or functional assay

recombinant native IL-8, sequence (P10145 28-99 limits assumed): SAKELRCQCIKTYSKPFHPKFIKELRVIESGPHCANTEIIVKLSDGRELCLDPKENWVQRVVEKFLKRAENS
recombinant native MIP-3a, sequence (P78556 27-96 limits assumed): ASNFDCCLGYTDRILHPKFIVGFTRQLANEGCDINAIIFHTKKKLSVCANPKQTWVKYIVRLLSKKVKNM
recombinant native TARC, sequence (Q92583 24-94 limits assumed): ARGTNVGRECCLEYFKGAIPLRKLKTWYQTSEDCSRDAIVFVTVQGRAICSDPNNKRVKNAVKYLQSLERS
UniProt Q92583, sequence (Q92583 other isoform, or with tags, fused parts or gaps limits assumed): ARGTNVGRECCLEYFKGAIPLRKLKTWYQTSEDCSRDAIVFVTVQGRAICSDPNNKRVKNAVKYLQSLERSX
UniProt P10145, sequence (P10145 other isoform, or with tags, fused parts or gaps limits assumed): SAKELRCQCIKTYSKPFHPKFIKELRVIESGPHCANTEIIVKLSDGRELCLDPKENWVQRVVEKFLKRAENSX

biotinIL-8 (6-78): IL-8 (6-78) derivatised at Lys(78) with PEG-Biotin (from UniProt P10145 28-99) (ligand)
EC50 (agonist activity, Aequorin assay) [1]: 6.1 nM

biotinIP-10 (CXCL10): IP-10 derivatised with Biotin at an additional C-terminal Lysine after a PEG spacer (from UniProt P02778 22-98) (ligand)
EC50 (agonist activity, Aequorin assay) [2]: 8.7 nM

biotinRANTES (CCL5): RANTES derivatised at Lys(67) with Biotin (from UniProt P13501 24-91) (ligand)
percent reduction of chemokine receptor-expressing cells (CCR1, 3 or 5, not told apart) [3]: 20% | percent reduction of chemokine receptor-expressing cells (CCR1, 3 or 5, not told apart) [4]: 20%

biotinSDF-1a (CXCL12): SDF-1a derivatised at Lys(64) with Biotin (from UniProt P48061 22-67) (ligand)
EC50 (agonist activity, Aequorin assay) [5]: 17.3 nM

biotinTARC (CCL17): TARC derivatised at Lys(72) with PEG-Biotin (from UniProt Q92583 24-94) (ligand)
EC50 (agonist activity, Aequorin assay) [6]: 3.1 nM

recombinant native IL-8 (from UniProt P10145 28-99) (ligand)
EC50 (agonist activity, Aequorin assay) [7]: 4.1 nM | EC50 (agonist activity, Aequorin assay) [1]: 4.2 nM

recombinant native IP-10 (from UniProt P02778 22-98) (ligand)
EC50 (agonist activity, Aequorin assay) [2]: 4.4 nM

recombinant native MIP-3a (from UniProt P78556 27-96) (ligand)
EC50 (agonist activity, Aequorin assay) [8]: 1 nM

recombinant native MIP-3b (from UniProt Q99731 22-98) (ligand)
EC50 (agonist activity, Aequorin assay) [9]: 1.6 nM

recombinant native TARC (from UniProt Q92583 24-94) (ligand)
EC50 (agonist activity, Aequorin assay) [6]: 2.6 nM

recombinant native TECK (from UniProt O15444 24-150) (ligand)
EC50 (agonist activity, Aequorin assay) [10]: 67.9 nM | EC50 (agonist activity, Aequorin assay) [11]: 67.9 nM

recombinant native eotaxin (from UniProt P51671 24-97) (ligand)
EC50 (agonist, Aequorin assay) [12]: 10.7 nM
